Several values for one entry are separate records, joined by “and”; a condition that tells them apart may be missing. Equal values may be shown once.
B1: His6-Pex17p (natural protein, yeast, UniProt P40155 1-199, looked up)
chain: MTSINSFPRNIDWPSNIGIKKIEGTNPTVNAIKGLLYNGGSIYAFLYFVIAMFVEPTLQKQYQQRNDFSLFVLLRLRRIIAQLQKRLVMTPVSSLGFNEQNNFVERSTQTSDDNIIREDNSHWAEMIYQLQNMKQELQYFNRSSGQPSESIDDFVFQIKMVTDQVELTDRSRAFSNKSRNIIQGIREIKGWFVNGQVPR
B3: StrepII-Pex14p(M51L) (natural protein, yeast, UniProt P53112 1-341, looked up)
chain: MSDVVSKDRKALFDSAVSFLKDESIKDAPLLKKIEFLKSKGLTEKEIEIALKEPKKDGIVGDEVSKKIGSTENRASQDMYLYEAMPPTLPHRDWKDYFVMATATAGLLYGAYEVTRRYVIPNILPEAKSKLEGDKKEIDDQFSKIDTVLNAIEAEQAEFRKKESETLKELSDTIAELKQALVQTTRSREKIEDEFRIVKLEVVNMQNTIDKFVSDNDGMQELNNIQKEMESLKSLMNNRMESGNAQDNRLFSISPNGIPGIDTIPSASEILAKMGMQEESDKEKENGSDANKDDNAVPAWKKAREQTIDSNASIPEWQKNTAANEISVPDWQNGQVEDSIP

Key:
StrepII-Pex14p(M51L) = biological target: B3; test: cryo-EM structure
cross-linking = biological target: the molecule itself; test: cross-linking
His6-Pex17p = biological target: B1; test: native MS
native MS + SEC-MALS = biological target: the molecule itself; test: native MS + SEC-MALS

Binder: B1
binding result (StrepII-Pex14p(M51L)): binds

B2: Pex14p_(119-341) (domain or fragment, yeast, UniProt P53112 119-341, looked up)
chain: VIPNILPEAKSKLEGDKKEIDDQFSKIDTVLNAIEAEQAEFRKKESETLKELSDTIAELKQALVQTTRSREKIEDEFRIVKLEVVNMQNTIDKFVSDNDGMQELNNIQKEMESLKSLMNNRMESGNAQDNRLFSISPNGIPGIDTIPSASEILAKMGMQEESDKEKENGSDANKDDNAVPAWKKAREQTIDSNASIPEWQKNTAANEISVPDWQNGQVEDSIP
stoichiometry N (cross-linking): 3

Binder: B3
stoichiometry N (His6-Pex17p): 3 Pex14p:Pex17p and 6 Pex14p:Pex17p and 4.5 Pex14p:Pex17p
stoichiometry N (native MS + SEC-MALS): 3 copies

Source: publication doi:10.1101/854497 (bioRxiv, 2020)
